Reference: publication PMC6205234

molecular target: GST-NS1 (Influenza A virus (H3N2)) (UniProt P03495); experiment: fluorescence anisotropy
Sequence (P03495 whole entry): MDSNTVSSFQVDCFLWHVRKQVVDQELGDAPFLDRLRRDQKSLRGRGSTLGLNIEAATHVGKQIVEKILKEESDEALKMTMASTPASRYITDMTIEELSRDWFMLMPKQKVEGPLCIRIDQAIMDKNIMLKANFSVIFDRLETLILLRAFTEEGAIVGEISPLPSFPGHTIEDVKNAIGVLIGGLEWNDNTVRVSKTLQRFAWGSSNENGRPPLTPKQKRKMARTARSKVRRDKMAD

**Q.** Which Kd does the source give for “GCUAUCCAGAUUCUGAUU / GAAUCAGAAUCUGGAUAGC [dsCR1]” here?
**A.** Its Kd is 2400 nM.

**Q.** “CCAUCCUCUACAGGCG / CGCCUGUAGAGGAUGG [dsRK1]” was tested. Which Kd did it give?
**A.** The Kd was 170 nM.

**Q.** How did the Kd turn out when GGGGGGGGGGGGGGGGGU [Poly (G)18] was run?
**A.** The Kd was 1200 nM.
